In paper PMC6260146 one finds anti-CD11b antibody binding in the presence of FH5-7 relative to without FH5-7 (1.0) (ratio of mean fluorescence) data, which are given here for one substance.

In the test the target is CR3 (CD11b/CD18) on peripheral blood monocytes (human (endogenous in peripheral blood monocytes)) (UniProt P11215). As to the kind of experiment: flow cytometry on cells; peripheral blood monocytes preincubated with unlabelled FH5-7 (14 μg/ml, 15 min on ice by the methods; 12 μg/ml, 30 min by the legend) or PBS, then a panel of FITC-, PE- or APC-labeled receptor specific antibodies, 45 min at 4°C; read-out: mean fluorescence of FH5-7 treated cells divided by PBS treated cells. A general note: In flow cytometry, cells or beads pass a laser one at a time.

Where only a bound is given, the exact number is not on record here.

For the substance “recombinant fragment FH5-7 of Factor H (domain or fragment)”, the anti-CD11b antibody binding in the presence of FH5-7 relative to without FH5-7 (1.0) (ratio of mean fluorescence) was below 0.8.
